Reference: the supplement of paper PMC10567573

B1: PRKX (parent)
chain: KLLVVDRTRRLGNMKNGANDVKHH

Variants of: B1
Assay: protein stability index of a GFP-peptide fusion (GPS, HEK-293T) (PSI 1-6); higher = more stable
Details: c terminus: a fixed tail appended
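Note: lentivirally expressed fusions sorted by FACS into six bins by GFP to DsRed ratio, PSI derived from sequencing read proportions per bin multiplied by bin number.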

Protein stability index of substitutions, site by site:
T8: Q 3.08; R 2.86; D 3.46; P 2.74; F 2.56; V 3; S 2.67; I 1.97; A 3.03; K 2.88; N 2.78; C 2.98; G 2.55; M 2.54; Y 2.67; H 2.97; L 2.47; W 2.78; E 3.38
D6: I 2.87; H 2.82; P 2.94; A 2.19; E 2.94; S 2.81; R 2.14; N 2.95; M 1.97; Q 2.03; C 2.01; G 2.29; L 1.98; K 2.55; T 2.52; V 2.26; W 1.69; Y 2.29; F 3.18
R9: K 2.99; I 2.73; E 3.5; Q 3.38; G 3.13; M 2.99; F 2.76; H 3.07; W 2.12; A 3.11; P 3.45; Y 2.63; N 2.81; S 3.33; V 2.6; T 3.21; C 2.21; L 2.69; D 3.4
R10: W 2.8; D 3.68; L 2.82; K 2.84; M 2.85; Q 3.65; T 3.83; F 2.31; S 4.15; E 4.05; Y 2.72; A 3.06; H 3.04; P 3.43; I 2.94; V 3.08; N 3.4; G 3.35; C 2.61
N16: S 3.27; H 2.85; W 2.26; E 3.18; D 2.85; F 2.42; T 3.25; Q 3.25; R 2.74; C 2.13; A 2.54; G 2.84; Y 2.38; I 2.74; M 2.26; V 2.62; L 2.69; P 3.16; K 3.19
G17: L 2.81; Y 2.34; H 3.4; I 2.74; N 3.08; T 2.9; E 3.52; W 1.86; M 2.63; D 3.5; S 2.85; V 3.04; C 2.63; R 2.55; P 2.63; Q 3; F 1.81; A 3.05; K 3.06
G12: V 2.67; C 2.84; T 2.95; P 3.19; W 2.19; L 2.83; Q 3.19; F 2.51; D 3.12; R 2.67; A 2.84; Y 2.5; M 2.24; E 3.38; S 3.02; H 3; K 2.48; N 2.6; I 2.04
V4: N 3.6; Q 3.19; Y 3.32; M 2.57; R 2.86; T 3.4; S 3.65; W 2.66; P 3.87
V21: D 3.54; R 2.79; A 3.5; Q 3.36; L 2.66; M 3.06; G 3.47; K 3.54; W 2.62; N 3.74; T 3.39; S 3.2; C 2.67; H 3.43; I 2.55; Y 2.34; E 4.12; F 3.22; P 3.37
K15: H 3.27; V 2.72; L 2.86; F 2.85; W 2.48; A 3.25; C 2.57; E 3.92; S 3.47; P 2.9; G 3.38; T 2.78; N 2.95; I 2.73; D 3.85; Q 3.5; Y 2.68; M 2.73; R 3.6
L11: A 3.23; P 3.57; I 3.22; Y 3.1; D 3.84; G 3.21; W 2.67; T 3.47; Q 3.42; N 3.6; V 3.09; H 3.64; S 3.27; E 3.7; C 2.57; F 2.93; K 2.93; R 3.65; M 2.77
R7: M 2.43; C 2.6; E 3.7; F 1.83; D 4.05; S 3.21; W 2.5; T 3.18; G 3.22; L 2.92; P 3.62; A 3.79; K 2.56; H 3.03; I 2.13; Q 3.97; Y 2.5; N 3.25; V 2.81
D20: K 2.55; S 2.38; T 2.65; A 3.13; Q 3.13; V 2.6; R 2.53; H 2.89; I 2.09; E 3.01; M 2.71; L 2.41; C 2.33; G 3.27; N 2.74; Y 2.19; W 2.3; P 2.75; F 2.13
A18: S 3.27; E 3.67; R 2.97; G 3.27; Y 2.29; P 2.87; H 3.34; V 2.63; Q 2.95; F 2.53; K 3.21; T 3.23; C 3.55; W 2.2; N 3.19; L 2.7; M 2.16; D 3.85; I 2.35
N13: T 3.09; A 3.44; Q 2.6; W 2.6; Y 3; C 2.62; D 3.46; G 2.84; H 2.81; S 2.91; E 3.6; P 2.75; L 2.31; M 2.51; R 2.75; K 2.81; I 2.54; V 3.02; F 2.02
V5: N 3.3; D 4.07; L 2.6; W 2.33; E 4.08; G 3.32; T 3.67; Q 3.11; Y 2.61; S 3.62; H 3.41; I 2.33; K 3.56; R 3.31; F 2.65; P 3.62; M 2.95; A 3.74; C 3.72
K22: A 2.71; C 2.7
M14: P 2.98; V 3.22; Y 3.03; D 4.09; N 3.67; E 3.8; G 3.74; L 2.89; H 3.54; Q 3.62; R 2.77; S 3.37; F 2.99; A 3.4; T 3; I 3.31; K 3.85; C 2.85; W 2.62
N19: W 2.71; I 2.29; M 2.59; E 3.3; Q 2.89; Y 2.08; D 3.12; S 3.16; C 2.66; G 3.12; P 2.97; V 2.64; R 2.54; H 2.75; T 3.11; A 2.84; K 3.6; L 2.47; F 2.32
